Assay results: paper PMC11694511

Legend:
[1] = molecular target: LolA from Vibrio cholerae (V. cholerae) (UniProt A5F2G9); test: ITC
[2] = molecular target: LolA from Porphyromonas gingivalis (P. gingivalis); test: ITC

Row | Substance | Kd [1] | Kd [2]
1 | polymyxin B (peptide) | 56 µM | –
2 | colistin (peptide) | 91 µM | 33 µM
